This is an account of results in patent US20230212549A1 (3B PHARMACEUTICALS, published 2023).

To fix the notation:
B1: N4Ac-Glu-Ttds-Nle-[Cys-(3MeBn)-Pro-Pro-Thr-Glu-Phe-Cys]-OH (peptide)
peptide: N4Ac-E[Ttds″][Nle]CPPTEFC-OH
modifications: linker 4-10 via 3MeBn
notes: also called 3BP-4222
B2: N4Ac-Glu(AGLU′)-Ttds-Nle-[Cys-(3MeBn)-Pro-Pro-Thr-Glu-Phe-Cys]-OH (peptide)
peptide: N4Ac-E[Ttds″][Nle]CPPTEFC-OH
modifications: linker 4-10 via 3MeBn; not fully specified (residue 1); printed as N4Ac--E(AGLU)--Ttds--Nle--[C(3MeBn)-PPTEFC]-OH
notes: also called 3BP-4249
B3: Hex-[Cys(tMeBn(DOTA-PP))-Pro-Pro-Thr-Gln-Phe-Cys]-Asp-NH2 (peptide)
peptide: Hexanoyl-CPPTQFCD-NH2
modifications: linker 1-7 via tMeBn(DOTA-PP)
SMILES: CCCCCC(=O)N[C@H]1CSCc2cc(cc(CN3CCN(C(=O)CN4CCN(CC(=O)O)CCN(CC(=O)O)CCN(CC(=O)O)CC4)CC3)c2)CSC[C@@H](C(=O)N[C@@H](CC(=O)O)C(N)=O)NC(=O)[C@H](Cc2ccccc2)NC(=O)[C@H](CCC(N)=O)NC(=O)[C@H]([C@@H](C)O)NC(=O)[C@@H]2CCCN2C(=O)[C@@H]2CCCN2C1=O
B4: Hex-[Cys(tMeBn(LuDOTA-AET))-Pro-Pro-Thr-Gln-Phe-Cys]-Asp-Gab-Arg-Ttds-Ttds-Ttds-Lys(AF488)-NH2 (peptide)
peptide: Hexanoyl-CPPTQFCD[GABA]R[Ttds″][Ttds″][Ttds″]K(AF488)-NH2
modifications: linker 1-7 via tMeBn(LuDOTA-AET); also: Lu complexed by DOTA
notes: also called 3BP-4373
B5: H-Ahx-Ttds-Nle-[Cys-(tMeBn(DOTA-PP))-Pro-Pro-Thr-Gln-Phe-Cys]-Asp-NH2 (peptide)
peptide: H-[Ahx][Ttds][Nle]CPPTQFCD-NH2
modifications: linker 4-10 via tMeBn(DOTA-PP)
SMILES: CCCC[C@H](NC(=O)CCC(=O)NCCCOCCOCCOCCCNC(=O)CCCCCN)C(=O)N[C@H]1CSCc2cc(cc(CN3CCN(C(=O)CN4CCN(CC(=O)O)CCN(CC(=O)O)CCN(CC(=O)O)CC4)CC3)c2)CSC[C@@H](C(=O)N[C@@H](CC(=O)O)C(N)=O)NC(=O)[C@H](Cc2ccccc2)NC(=O)[C@H](CCC(N)=O)NC(=O)[C@H]([C@@H](C)O)NC(=O)[C@@H]2CCCN2C(=O)[C@@H]2CCCN2C1=O
notes: also called 3BP-4004
B6: Hex-[Cys-(tMeBn(H-AET))-Pro-Pro-Thr-Gln-Phe-Cys]-Asp-NH2 (peptide)
peptide: Hexanoyl-CPPTQFCD-NH2
modifications: linker 1-7 via tMeBn(H-AET)
notes: also called 3BP-3981
B7: N4Ac-gGlu-Ttds-Nle-[Cys-(3MeBn)-Pro-Pro-Thr-Glu-Phe-Cys]-OH (peptide)
peptide: N4Ac-[γGlu][Ttds″][Nle]CPPTEFC-OH
modifications: linker 4-10 via mXylylene
SMILES: CCCC[C@H](NC(=O)CCC(=O)NCCCOCCOCCOCCCNC(=O)CC[C@H](NC(=O)C(CNCCN)CNCCN)C(=O)O)C(=O)N[C@H]1CSCc2cccc(c2)CSC[C@@H](C(=O)O)NC(=O)[C@H](Cc2ccccc2)NC(=O)[C@H](CCC(=O)O)NC(=O)[C@H]([C@@H](C)O)NC(=O)[C@@H]2CCCN2C(=O)[C@@H]2CCCN2C1=O
notes: also called 3BP-4247
B8: N4Ac-Glu(AGLU′)-Glu(AGLU′)-Ttds-Nle-[Cys-(3MeBn)-Pro-Pro-Thr-Glu-Phe-Cys]-OH (peptide)
peptide: N4Ac-E(AGLU′)E(AGLU′)[Ttds″][Nle]CPPTEFC-OH
modifications: linker 5-11 via 3MeBn(3); reading uncertain; also: printed as N4Ac-Glu(AGLU′)-Glu(AGLU′)-Ttds-Nle-[Cys-(3MeBn)-Pro-Pro-Thr-Glu-Phe-Cys]-OH
notes: also called 3BP-4266
B9: DOTA-Ttds-Nle-[Cys(tMeBn(DOTA-AET))-Pro-Pro-Thr-Gln-Phe-Cys]-Asp-Ttds-Lys(DOTA)-NH2 (peptide)
peptide: {DOTA}-[Ttds][Nle]CPPTQFCD[Ttds]K(DOTA)-NH2
modifications: linker 3-9 via tMeBn(DOTA-AET)
notes: also called 3BP-4392
B10: N4Ac-Efa-Nle-[Cys-(3MeBn)-Pro-Pro-Thr-Glu-Phe-Cys]-OH (peptide)
peptide: N4Ac-[Efa][Nle]CPPTEFC-OH
modifications: linker 3-9 via 3MeBn(3)
notes: also called 3BP-4243

Numbered stars: 1 amine (or outer) side, 2 acyl side, 3 side chain; on linkers, the order of the positions; unused ones are H or OH. Bridge positions count the residues as written; N and C are the ends. Square brackets hold non-standard residues; d marks the D form. Primed or numbered codes have the meaning given here. * marks the point of attachment. tMeBn(LuDOTA-AET) = 1,3,5-trimethylbenzylidene (from 1,3,5-tris(bromomethyl)benzene) bridge with two thioethers to the Cys, its third CH2 carries AET (2-aminoethanethiol, attached through S), whose amine is acylated by DOTA complexing lutet, O=C([O-])CN1CCN(CC(=O)[O-])CCN(CC(=O)NCCSCc2cc(C[*:1])cc(C[*:2])c2)CCN(CC(=O)[O-])CC1.[Lu+3]; tMeBn(DOTA-PP) = 1,3,5-trimethylbenzylidene, two thioethers to Cys, third CH2 bound to one N of piperazine whose other N bears DOTA, O=C(O)CN1CCN(CC(=O)O)CCN(CC(=O)N2CCN(Cc3cc(C[*:1])cc(C[*:2])c3)CC2)CCN(CC(=O)O)CC1; tMeBn(DOTA-AET) = 1,3,5-trimethylbenzylidene (from 1,3,5-tris(bromomethyl)benzene), two thioethers to Cys, third CH2 bears 2-aminoethanethiol via S, its amine acylated by DOTA; Ttds″ = 1,13-diamino-4,7,10-trioxatridecan-succinamic acid spacer, O=C(CCC(=O)[*:2])NCCCOCCOCCOCCCN[*:1]; Efa = N-[2-(2-amino-ethanesulfonyl)-ethyl]-succinamic acid, O=C(CCC(=O)[*:2])NCCS(=O)(=O)CCN[*:1]; Ttds = 1,13-diamino-4,7,10-trioxatridecan-succinamic acid, O=C(CCC(=O)[*:2])NCCCOCCOCCOCCCN[*:1]; 3MeBn = 3-Methylbenzylidene (m-xylylene thioether bridge from α,α′-dibromo-m-xylene); N4Ac = 6-Carboxy-1,4,8,11-tetraazaundecane, an N4-chelator, NCCNCC(CNCCN)C(=O)*; 3MeBn(3) = 3-methylbenzylidene (m-xylylene), from α,α′-dibromo-m-xylene; DOTA = O=C(O)CN1CCN(CC(=O)O)CCN(CC(=O)*)CCN(CC(=O)O)CC1; γGlu = O=C(O)[C@H](CCC(=O)[*:2])N[*:1]; mXylylene = c1cc(C[*:1])cc(C[*:2])c1; AF488 = Alexa Fluor 488 label; AGLU′ = not defined here; Nle = CCCC[C@H](N)C(=O)O; Hexanoyl = CCCCCC(=O)*; Ahx = NCCCCCC(=O)O; GABA = NCCCC(=O)O

One assay deals with T1, Recombinant human FAP (R&D systems, #3715-SE) (human, UniProt Q12884 26-760).
T1 construct: bought; in SPR captured on immobilized anti-FAP antibody MAB3715; also called rhFAP; human recombinant FAP
Nature of the assay: SPR (Biacore T200), FAP captured on anti-FAP antibody, single cycle kinetics. In general terms: Surface plasmon resonance follows binding to a sensor surface in real time, without labels.
In the case of B1, the “pKD Category” value was above 8 pKD. Regarding B2, the “pKD Category” value was above 8 pKD. For the molecule B3, the “pKD Category” value was above 8 pKD.

In the next assay the target is T1, Recombinant human FAP (R&D systems, …). Briefly: cell-based or functional assay.
Take B4: the “pIC50 Category (Activity)” value was above 8 pIC50. For the molecule B5, the “pIC50 Category (Activity)” value is above 8 pIC50.

As to B6, the “pIC50 Category (Activity)” value is above 8 pIC50.

The target in a further assay is T2, human fibroblast activation protein (FAP) on WI-38 fibroblasts (human, UniProt Q12884 1-760).
T2 construct: FAP-expressing human WI-38 fibroblasts (ECACC)
Nature of the assay: competitive FACS, WI-38 cells, Cy5-labeled peptide as competitor; B = pIC50 7.1 to 8.0.
Molecule B7 registered a pIC50 of 7.1 to 8 pic50. On to B8, for which the pIC50 is 7.1 to 8 pic50. B4 came in with a pIC50 of 7.1 to 8 pic50.

On to B9, for which the pIC50 was in the range of 7.1 to 8 pic50. B5 showed a pIC50 of 7.1 to 8 pic50. B1: the pIC50 was 7.1 to 8 pic50.

With B6, the pIC50 was 7.1 to 8 pic50. In turn, B2 gave a pIC50 of 7.1 to 8 pic50.

With B10, the pIC50 was in the range of 7.1 to 8 pic50.

A further assay deals with T3, recombinant human PREP (R&D systems, #4308-SE) (human, UniProt P48147 1-710).
T3 sequence: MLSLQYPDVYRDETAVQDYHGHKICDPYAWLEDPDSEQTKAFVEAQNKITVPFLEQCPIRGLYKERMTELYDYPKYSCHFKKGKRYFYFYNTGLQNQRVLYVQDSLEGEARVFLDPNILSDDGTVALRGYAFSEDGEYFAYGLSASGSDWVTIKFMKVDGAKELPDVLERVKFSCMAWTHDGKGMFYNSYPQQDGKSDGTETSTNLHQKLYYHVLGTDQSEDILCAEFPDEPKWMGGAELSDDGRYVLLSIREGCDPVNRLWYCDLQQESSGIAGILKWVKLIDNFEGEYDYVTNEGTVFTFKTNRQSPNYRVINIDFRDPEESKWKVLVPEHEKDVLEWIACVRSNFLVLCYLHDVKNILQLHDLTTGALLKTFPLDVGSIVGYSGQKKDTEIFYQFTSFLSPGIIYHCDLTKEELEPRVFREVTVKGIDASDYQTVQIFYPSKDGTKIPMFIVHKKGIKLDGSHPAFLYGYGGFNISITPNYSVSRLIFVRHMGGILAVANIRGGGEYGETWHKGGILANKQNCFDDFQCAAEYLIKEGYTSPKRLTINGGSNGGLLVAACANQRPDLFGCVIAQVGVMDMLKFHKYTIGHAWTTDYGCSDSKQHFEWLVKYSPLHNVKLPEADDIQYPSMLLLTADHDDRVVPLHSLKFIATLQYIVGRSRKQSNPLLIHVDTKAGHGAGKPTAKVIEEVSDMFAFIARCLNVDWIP
Briefly: cell-based or functional assay.
In the case of B3, the “pIC50 (PREP)” value was below 6 pIC50.

For a further assay, the target named is Recombinant human DPP4 (R&D systems, #9168-SE) (human, UniProt P27487 29-766). Briefly: cell-based or functional assay.
Chain of Recombinant human DPP4 (R&D systems, #9168-SE) (P27487 29-766 limits assumed): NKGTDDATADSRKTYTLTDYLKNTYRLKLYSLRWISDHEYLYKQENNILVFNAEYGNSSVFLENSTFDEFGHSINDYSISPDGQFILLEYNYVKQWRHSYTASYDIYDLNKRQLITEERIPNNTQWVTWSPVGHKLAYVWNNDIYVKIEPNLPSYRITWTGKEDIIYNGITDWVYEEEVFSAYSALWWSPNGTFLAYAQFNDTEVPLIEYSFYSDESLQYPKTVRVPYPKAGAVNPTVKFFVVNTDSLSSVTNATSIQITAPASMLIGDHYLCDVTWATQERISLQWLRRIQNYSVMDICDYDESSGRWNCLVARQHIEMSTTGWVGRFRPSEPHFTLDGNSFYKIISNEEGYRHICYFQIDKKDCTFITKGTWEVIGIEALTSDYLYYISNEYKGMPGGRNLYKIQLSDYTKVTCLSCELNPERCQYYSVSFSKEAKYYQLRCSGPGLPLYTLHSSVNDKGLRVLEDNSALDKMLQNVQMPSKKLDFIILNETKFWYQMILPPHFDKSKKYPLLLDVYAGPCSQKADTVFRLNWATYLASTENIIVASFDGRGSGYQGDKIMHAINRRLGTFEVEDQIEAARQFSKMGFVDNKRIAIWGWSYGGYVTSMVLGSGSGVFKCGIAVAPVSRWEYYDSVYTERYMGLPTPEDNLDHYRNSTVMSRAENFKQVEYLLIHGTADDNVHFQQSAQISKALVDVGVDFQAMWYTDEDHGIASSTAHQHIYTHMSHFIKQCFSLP
As for B3, the “pIC50 (DPP4)” value was below 6 pIC50.
